According to patent US20250376536A1 (Bristol-Myers Squibb, published 2025):

Tests used:
[1] = biological target: T1, human FAP on cells (human, UniProt Q12884 1-760); test: binding to human FAP-positive HEK cells
T1 construct: also called FAP-positive HEK cells (human); human FAP-expressing HEK cells
T1 sequence: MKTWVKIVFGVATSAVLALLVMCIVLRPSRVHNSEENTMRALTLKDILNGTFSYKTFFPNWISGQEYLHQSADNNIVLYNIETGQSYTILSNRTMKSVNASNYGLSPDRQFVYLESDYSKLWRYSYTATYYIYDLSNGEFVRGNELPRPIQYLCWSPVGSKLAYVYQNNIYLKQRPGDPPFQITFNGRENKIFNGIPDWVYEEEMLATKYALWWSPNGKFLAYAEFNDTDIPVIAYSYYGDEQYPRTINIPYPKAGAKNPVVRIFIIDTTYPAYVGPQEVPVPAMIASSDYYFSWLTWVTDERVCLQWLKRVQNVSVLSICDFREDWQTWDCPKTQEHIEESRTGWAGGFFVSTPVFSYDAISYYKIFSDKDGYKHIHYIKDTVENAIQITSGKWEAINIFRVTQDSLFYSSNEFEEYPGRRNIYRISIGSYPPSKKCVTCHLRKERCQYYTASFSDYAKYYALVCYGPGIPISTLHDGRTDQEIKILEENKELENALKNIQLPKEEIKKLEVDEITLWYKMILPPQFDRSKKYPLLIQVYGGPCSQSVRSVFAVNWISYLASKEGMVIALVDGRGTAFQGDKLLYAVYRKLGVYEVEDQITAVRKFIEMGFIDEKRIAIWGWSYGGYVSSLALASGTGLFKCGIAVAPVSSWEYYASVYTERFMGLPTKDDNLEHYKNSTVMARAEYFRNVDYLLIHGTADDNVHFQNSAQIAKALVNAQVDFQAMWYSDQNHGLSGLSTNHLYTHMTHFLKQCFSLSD

[2] = biological target: T1, human FAP on cells; test: cell-based or functional assay
[3] = biological target: T2, soluble FAP (human, UniProt Q12884 26-760, limits assumed); test: cell-based or functional assay
T2 sequence: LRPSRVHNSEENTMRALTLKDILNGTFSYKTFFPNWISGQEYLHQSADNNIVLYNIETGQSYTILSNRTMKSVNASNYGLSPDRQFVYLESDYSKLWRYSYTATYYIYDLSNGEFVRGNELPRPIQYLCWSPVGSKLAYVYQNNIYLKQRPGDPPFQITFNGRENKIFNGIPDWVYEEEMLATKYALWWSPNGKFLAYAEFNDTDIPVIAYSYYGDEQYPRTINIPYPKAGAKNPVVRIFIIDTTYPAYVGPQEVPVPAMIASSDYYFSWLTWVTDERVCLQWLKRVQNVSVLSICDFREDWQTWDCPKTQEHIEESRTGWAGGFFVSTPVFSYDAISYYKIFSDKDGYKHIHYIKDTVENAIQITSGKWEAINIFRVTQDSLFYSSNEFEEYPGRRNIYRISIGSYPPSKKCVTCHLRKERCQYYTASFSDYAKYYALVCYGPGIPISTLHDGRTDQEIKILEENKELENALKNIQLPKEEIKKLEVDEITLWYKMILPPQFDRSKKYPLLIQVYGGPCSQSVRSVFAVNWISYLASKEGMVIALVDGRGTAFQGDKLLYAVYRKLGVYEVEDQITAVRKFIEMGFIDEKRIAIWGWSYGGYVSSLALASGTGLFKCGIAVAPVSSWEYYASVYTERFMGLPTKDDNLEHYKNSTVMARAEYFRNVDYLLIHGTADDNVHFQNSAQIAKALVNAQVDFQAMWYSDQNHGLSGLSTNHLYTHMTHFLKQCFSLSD

[4] = biological target: T1, human FAP on cells; test: cell-based or functional assay; remark: listed apart in the source
[5] = biological target: T2, soluble FAP; test: cell-based or functional assay; remark: listed apart in the source
[6] = biological target: cynomolgus (cyno) CD40 protein (cynomolgus monkey, UniProt G7PG38 21-193); test: SPR
Protocol: (§1) CD40.9H3×FAP.LP62 and an analog of RO7300490 (see SEQ ID NOs: 39-42) binding to human and cynomolgus (cyno) CD40 and FAP was evaluated by surface plasmon resonance (SPR) using human and cyno CD40 and FAP proteins. […] The rates of association and dissociation of CD40.9H3×FAP.LP62 and the analog of RO7300490 to human CD40 and FAP are summarized in Table 2.

[7] = biological target: T3, cynomolgus (cyno) FAP protein (cynomolgus monkey); test: SPR
T3 chain: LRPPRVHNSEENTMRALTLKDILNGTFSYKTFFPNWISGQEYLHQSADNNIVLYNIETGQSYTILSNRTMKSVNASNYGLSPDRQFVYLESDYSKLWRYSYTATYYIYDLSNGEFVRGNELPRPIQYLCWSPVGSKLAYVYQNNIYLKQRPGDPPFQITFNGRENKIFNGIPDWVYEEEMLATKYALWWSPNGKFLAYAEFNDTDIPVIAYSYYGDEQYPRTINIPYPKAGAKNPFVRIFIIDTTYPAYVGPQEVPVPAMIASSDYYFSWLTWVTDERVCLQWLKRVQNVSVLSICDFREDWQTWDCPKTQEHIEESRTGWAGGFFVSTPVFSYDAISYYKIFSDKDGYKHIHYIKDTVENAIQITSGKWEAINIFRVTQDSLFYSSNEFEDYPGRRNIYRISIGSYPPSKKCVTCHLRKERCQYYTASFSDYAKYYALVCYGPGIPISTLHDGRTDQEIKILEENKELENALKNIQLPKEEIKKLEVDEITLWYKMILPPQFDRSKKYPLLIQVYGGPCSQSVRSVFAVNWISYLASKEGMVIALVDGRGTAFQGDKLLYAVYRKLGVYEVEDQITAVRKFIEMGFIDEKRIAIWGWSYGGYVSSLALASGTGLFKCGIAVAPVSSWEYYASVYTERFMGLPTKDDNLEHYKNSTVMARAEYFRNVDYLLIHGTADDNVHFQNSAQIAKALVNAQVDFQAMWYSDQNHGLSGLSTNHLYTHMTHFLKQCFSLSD
Protocol: as §1

[8] = biological target: T4, human CD40 protein (human, UniProt P25942 21-193); test: SPR
T4 construct: Protein used in SPR
Protocol: as §1

[9] = biological target: T5, cyno CD40 on B cells (cynomolgus monkey, UniProt G7PG38 21-278); test: binding to cyno CD40-positive B cells
T5 construct: whole, on cells; also called Cyno CD40-positive B cell

T4 sequence (P25942 21-193 limits assumed): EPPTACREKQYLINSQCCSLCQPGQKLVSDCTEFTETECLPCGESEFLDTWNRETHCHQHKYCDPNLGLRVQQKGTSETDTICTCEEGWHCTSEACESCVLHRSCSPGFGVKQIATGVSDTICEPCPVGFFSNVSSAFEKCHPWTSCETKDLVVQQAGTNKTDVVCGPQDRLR

EC50 [1]: 3.72 nM
IL12p40 secretion, human DC + HFF1 co-culture, EC50 [2]: 0.079 nM
TNFα release, CD40-positive macrophages + HFF1 co-culture, EC50 [2]: 0.12 nM
fold reduction in potency of IL12p40 secretion with 120 ng/mL soluble FAP [3]: 4.2 fold
fold reduction in potency of IL12p40 secretion with 480 ng/mL soluble FAP [3]: 7.5 fold
IL12p40 release, human DC + HFF1 co-culture, EC50, soluble FAP 0 ng/mL [4]: 0.13 nM
IL12p40 release, human DC + HFF1 co-culture, EC50, soluble FAP 120 ng/mL [5]: 0.46 nM
IL12p40 release, human DC + HFF1 co-culture, EC50, soluble FAP 480 ng/mL [5]: 0.8 nM
Kd [6]: 97 nM
koff [6]: 0.0052 s⁻¹
kon [6]: 53000 M⁻¹ s⁻¹
Kd [7]: 5.6 nM
koff [7]: 0.00276 s⁻¹
kon [7]: 500000 M⁻¹ s⁻¹
Kd [8]: 92 nM
koff [8]: 0.0052 s⁻¹
kon [8]: 57000 M⁻¹ s⁻¹
EC50 [9]: 4.69 nM
B1: CD40.9H3×FAP.LP62 bispecific antibody (bispecific antibody, human IgG1, kappa, L234A L235A)
heavy 1: EVQLVESGGGLVQPGGSLRLSCAASGFTFIGYSMNWVRQAPGKGLEWVSYISSYESTIYYADSVKGRFTISRDNAKNSLYLQMNSLRAEDTAVYYCARSRITLVRGVPRYFDLWGRGTLVTVSSASTKGPSVFPLAPSSKSTSGGTAALGCLVKDYFPEPVTVSWNSGALTSGVHTFPAVLQSSGLYSLSSVVTVPSSSLGTQTYICNVNHKPSNTKVDKKVEPKSCDKTHTCPPCPAPEAAGGPSVFLFPPKPKDTLMISRTPEVTCVVVSVSHEDPEVKFNWYVDGVEVHNAKTKPREEQYNSTYRVVSVLTVLHQDWLNGKEYKCKVSNKALPAPIEKTISKAKGQPREPQVYVLPPSREEMTKNQVSLLCLVKGFYPSDIAVEWESNGQPENNYLTWPPVLDSDGSFFLYSKLTVDKSRWQQGNVFSCSVMHEALHNHYTQKSLSLSPG
heavy 2: EVQLVESGGGLVQPGGSLRLSCAASGFTFIGYSMNWVRQAPGKGLEWVSYISSYESTIYYADSVKGRFTISRDNAKNSLYLQMNSLRAEDTAVYYCARSRITLVRGVPRYFDLWGRGTLVTVSSASTKGPSVFPLAPSSKSTSGGTAALGCLVKDYFPEPVTVSWNSGALTSGVHTFPAVLQSSGLYSLSSVVTVPSSSLGTQTYICNVNHKPSNTKVDKKVEPKSCDKTHTCPPCPAPEAAGGPSVFLFPPKPKDTLMISRTPEVTCVVVSVSHEDPEVKFNWYVDGVEVHNAKTKPREEQYNSTYRVVSVLTVLHQDWLNGKEYKCKVSNKALPAPIEKTISKAKGQPREPQVYVYPPSREEMTKNQVSLTCLVKGFYPSDIAVEWESNGQPENNYKTTPPVLDSDGSFALVSKLTVDKSRWQQGNVFSCSVMHEALHNHYTQKSLSLSPGGGSGGGGSGGGGSGGGGSEVQLLESGGGLVQPGGSLRLSCAASGFTFSSRGMSWVRQAPGKCLEWVSFISSSGTYVYYADSVKGRFTISRDNSKNTLYLQMNSLRAEDTAVYYCARDLPRTGVYFGMDVWGQGTTVTVSSGGGGSGGGGSGGGGSGGGGSDIQMTQSPSSLSASVGDRVTITCRASQSIFNYLNWYQQKPGKAPKLLIYGASTLQSGVPSRFSGSGSGTDFTLTISSLQPEDFATYYCQESYSTPYTFGCGTKVEIK
light: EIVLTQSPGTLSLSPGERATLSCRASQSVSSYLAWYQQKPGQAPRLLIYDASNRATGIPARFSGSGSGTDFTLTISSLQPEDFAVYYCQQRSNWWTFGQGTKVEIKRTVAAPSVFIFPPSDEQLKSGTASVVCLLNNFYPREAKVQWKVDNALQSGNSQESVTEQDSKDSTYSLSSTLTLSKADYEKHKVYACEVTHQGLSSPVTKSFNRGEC
notes: 2+1 format: two anti-CD40 9H3 Fabs on an IgG1 Fc with L234A, L235A, D265S and heterodimerization mutations; Ratio 1:1:2
